experiment: soluble on expression in E. coli; label from the status in PepcDB or PDB records

| Sequence | soluble on expression in E. coli |
| --- | --- |
| SMEEKLKKTNIIFVVGGPGSGKGTQCEKIVQKYGYTHLSTGDLLRSEVSSGSARGKKLSEIMEKGQLVPLETVLDMLRDAMVAKVNTSKGFLIDGYPREVQQGEEFERRIGQPTLLLYVDAGPETMTQRLLKRGETSGRVDDNEETIKKRLETYYKATEPVIAFYEKRGIVRKVNAEGSVDSVFSQVCTHLDALLN | soluble |
| MDITEKLRLITRNAEEVVTEEELRQLIETKEKPRAYVGYEPSGEIHLGHMMTVQKLMDLQEAGFEIIVLLADIHAYLNEKGTFEEIAEVADYNKKVFIALGLDESRAKFVLGSEYQLSRDYVLDVLKMARITTLNRARRSMDEVSRRKEDPMVSQMIYPLMQALDIAHLGVDLAVGGIDQRKIHMLARENLPRLGYSSPVCLHTPILVGLDGQKMSSSKGNYISVRDPPEEVERKIRKAYCPAGVVEENPILDIAKYHILPRFGKIVVERDAKFGGDVEYASFEELAEDFKSGQLHPLDLKIAVAKYLNMLLEDARKRLGVSV | soluble |
| MAHHHHHHMNDCISTDKVDLDKKQIKKFLKQINISQLTKMIQFIDNKLLSDWDFNCLTYFDESEYPFFDINLSLICTIDHNIPINIIINFLCFVEKQYNNVPYHNTIHATMVTQKFFCLAKKLGIYDDLEYKIKLVMFISGICHDIGHPGYNNLFFVNSLHPLSIIYNDISVLENYHASITFKILQLNQCNILKNFSEKDFRMMRSYIIELILSTDMKHHFEIISKFRIRRENEDFDYIKNSDDLLILTKMIIKSADISHGSVSWSEHYCWCQRVLSEFYTQGDEELKNKMPLSPLCDRTKHNEVCKSQITFLKFVVMPLFEELSHIDNNKFIKSFCLKRLNSNCIMWDTLMKEEKTIEVYDPAAVKLKDKKKKKVDKKKKSYIDLTLFFIKNV | not soluble |
| MQIDVDPQEDPQNAPDVNYVVENPTLDLEQYAASYSGLMRIERLQFIADRCPPLRVEALKMALSFVQRTFNVDMYEEIHRKLSEATRELQNAPDAIPESGVEPPPLDTAWVEATRKKALLKLEKLDTDLKNYKGNSIKESIRRGHDDLGDHYLDCGDLSNALKCYSRARDYCTSAKHVINMCLNVIKVSVYLQNWSHVLSYVSKAESTPEIAEQRGERDSQTQAILTKLKCAAGLAELAARKYKQAAKCFLLASFDHCDFPELLSPSNVAVYGGLCALATFDRQELQRNVISSSSFKLFLELEPQVRDIIFKFYESKYASCLKMLDEMKDNLLLDMYLAPHVRTLYTQIRNRALIQYFSPYVSADMHKMAAAFNTTVAALEDELTQLILEGLINARIDSHSKILYARDVDQRSTTFEKSLLMGKEFQRRAKAMILRAAVLRNQIHVKVKSLGCEGMGGTHTASTEPSLSTAVSS | not soluble |
| MGSDKIHHHHHHMETVQYDYKQILQRIVAEIKSSRIQVARKITSATMELYWNIGKELSAQHLSKGYGAQVVEMLASDLQKEFPGTTGFSSRNLWEMKRFYERYCGESRKLQQSVAVLPWGHNLLLMSKCKNPEEIYFYATRSTELGWTRDVLLNYIKADAFSTREEQPKLHNFKETLPECLQEQAEEMLKSRYNLEFLGITKPILELELERRLVDKIKTFLLEMGKGFSFIGNQYRLVLEDKEYFVDMLFFNRCTRSLIALELKIGSFQPEYVGKMNFYLNLLDRQVKMPDENPSIGIILCADRNNVEVEVALQGSTAPIGVSEYSYLIPQKQIKELINNELSGNKE | not soluble |
| MKDTVKSLKQELQTITHWEHSQKDLWFWEKLGRLPFQVLDKLTPKVVHRKLGQLLDELGSYIQSGGQYLVNEGKVLDKLGVSSLAEVPHLPLETMDRVCDELIDARVTFAQLQGAATGIGGALTLAVDIPALLGLALKTLQEIAIVYGYDPKEKEERVFVVKCLQFAAADIVGKKAILDELSSFSNERGRVFSELQGWREVMMTFRDQYGWKKLFQAVPIIGVIFGSLFNKSFMEDIAETGKMLYRKRRIIEKLKQFEPGI | not soluble |
| PSLALYVDASGKIKYINEYFLEICRFKSADEATGRSPSELLDTSSRRTLAEKVMETGEGIYNVEKSIKFKALDKPLFTVLSAVPVKDETGTIAGSLMVITDMT | not soluble |
| MCMVMREYNKERLRKAIELWYREEGVRIIKDRVEHYLKFYPVKPRSIKVKEQKRRWGSCTYYNDLLFNWRCIMAPLKVVDYIVVHEMTHMVHKDHSKNYWNFVSKIIPNYKEQKMWLKENGIIMDIMAGDPLEHHHHHH | soluble |
| MGSDKIHHHHHHMKRENLHQPFEISFSEFDESMLKEHDHTFFELVYILSGTGIQWINNNKFSYHGGHLFMITPGDSHSFEIHSTTKFIDIKFNDIYIHSAVFGTENIKRLEFILQHANHQPGCILRNRTDKLLVKPMIEAIIREYVNRNLYSKEIITQLINTIIIVVARNIAMFLPEQVNECSEEKSLGILQYIQTYIYQSEKIKTKAISQHFGISENYLGRYFKKHTNETMQQYILNYKLKLVENRLLHSEMRISEIVAELGFTDESHLNKLFKKYRGCSPTNFRKNNAV | not soluble |
| MGHHHHHHSHMAGAGVPGEATGRGAGGRRRKRPLQRGKPPYSYIALIAMAIAHAPERRLTLGGIYKFITERFPFYRDNPKKWQNSIRHNLTLNDCFLKIPREAGRPGKGNYWALDPNAEDMFESGSFLRRRKRFKRSDLST | soluble |
| MNVMDTHPDGRAIAHLAERIRAGLIGHEILVERLMTALLTGGHVLIEGAPGLAKTRAVKRLAQGLDGSFARIQCTPDLMPSDLTGTQVFRRQSESFDFVPGPIFHSLVLVDEINRAPPKVQSALLEAMAEGQVTAGGVTRPLPDPFMVVATQNPIEHEGTFPLPEAQLDRFLLHVDLAMPGAEAERAILDLVEGEAREAALPAGRPLELAELRRARAAVAGIHLAPALRDFIVRLVIATRETEGSPLEGLIEHAVSPRGTLALAASARSRALLHGRDHALPEDVEALAPDALAHRLVPSWRATSEGISARGIVARLLPHVRPWLEHHHHHH | not soluble |
| MGSSHHHHHHSSGLVPRGSHMASNPNDDMPVDKILEAELISDPKVEQVVPFEQVNENDPVSNICKAADRQLVTLVEWAKRIPHFSSLPLEDQVILLRAGWNELLIASFSHRSIDVKDSILLASGLHVHRHSAHQAGVGPIFDRVLTELVSKMRDMMMDKTELGCLRAVVLFNPDVKNPSDSAHIESLREKVYASLEAYCRSKYPDQPGRFAKLLLRLPALRSIGLKCLEHLFFFKLIGDTPIDKFLMNMLETTSDFPV | soluble |
| MGNRLMTSGAQGTNAAVIRGAMRADPNLLTVILPQSLDRQPRESREQLEKVIHLVEHAENDHLSLAEASTLCNQAIVTRCQQLICFAFHDSHTLLETCRYAEDQHHLVTLFYFDLEHHHHHH | soluble |
| MAHHHHHHMSTTNPTGETTEWDDLQRKYGNLPPLQKEVKEEEIYLNKLEKLEGVNPLEKKNLHELTLLEENCVDEDYLKIIEKHKANRIKEINRSRALDVFGTVYEISKDNFLTEVNEASKRNPLGEHGGRSMESTRGDEDLEEDEEQGVAASSTEGTEGTHVVIHLYSDNVLACKVINSILIQMARKHKYVKFTKGVYNRIVENYPESKLPTLLIYYNGTCIHQICNLLNNIKGGMNNLSLKTFERLMEKYNILRYPSSWMNSRQSVSDHSVNSSDVDSEEGSRYAEKGTRVRTHKQYTSFNMFDSKYTSRDYSSDEDRELKSRGYASSMLDKKVSRNEL | not soluble |
| MSLGFHEFSSPYDWSRIASYKRTAKAAFGGMVDLSVGSPVDPVPDSVRKALAVSSNDPNAYGYPVTAGTADLRDAIHEWFAAARNVDLRAIGADAVPTVGSKEGVALMASLLHFGEGDVVVQPKVSYPTYEIGTQLAGAQTLKVDDVADADSWKDVPGVKAVWVNSPCNPTGEVLSAEQMAGIVRAARAIGAVVLSDECYALMQWEDDVAEADADTLASTPCALRADVCGGSAEGVLVLYSLSKQSNMAGYRTALIAGDQSLIGPMAAYRKQIGQIIPGPVQAAMAAGLRDFDAVKTQHSRYQERLGMLVSALRAYGYCTDMPQGALYVWVKAKSGDCWEDLRQLAEIGIVASPGEFYGAPEYLRFSATASDAAIASAAERLAREGHHHHHH | soluble |
| MGSDKIHHHHHHMNFIDTLKSVDLILSTGEVPLIVGESGIGKTALANKLAKENDWSLIVIDGNLLKEGEIGGLPTIESYVGVNSNGYKTEKKTTVYAVHNKLREIDEEISKSKTVLLFIDEINRCEHTVQQELMNLILNREINGYKLHDDVKILAAMNPSSKYGSDFDYQVVDMDAAQENRFVWLNMESDHTQWIKWAIDEGIERKVIEFISTFPEYLHKINEDDVRATPRSYERVSKIYKVYKEKNNSIPRAVFLNVVKGNVGKVIAEEFISFIESNFEPLISYEDVFLGESIDESIVERVKNESHTRLYLSAMNILKDLELNIKNDKYESNHYINRFIEFLKMYPVDLMIGIMKDIRNSYIEVYKKAIENEEFVKSYFESYSLIRG | not soluble |
| MIIREATVQDYEEVARLHTQVHEAHVKERGDIFRSNEPTLNPSFFQAAVQGEKSTVLVFVDEREKIGAYSVIHLVQTPLLPTMQQRKTVYISDLCVDETRRGGGIGRLIFEAIISYGKAHQVDAIELDVYDFNDRAKAFYHSLGMRCQKQTMELPLLEHHHHHH | soluble |
| SLTTVSVNESLLTPLNLEIDPNAQCVKQEEKEQIKSLNSRFAAFIDKVRFLEQQNKLLETKLQFYQNRECCQSNMEPLFEGYIETLRREAECVEADSGRLASELNHVQEVLEGYKKKYEEEVSLRATAENEFVALKKDVDCAYLRKSDLEANVEALIQEIDFLRRLYEEEIRILQSHISDTSVVVKLDNSRDLNMDCIIAEIKAQYDDIVTRSRAEAESWYRSKCEEMKATVIRHGETLRRTKEEINELNRMIQRLTAEVENAKCQNSKLEAAVAQSEQQGEAALSDARCKLAELEGALQKAKQDMACLIREYQEVMNSKLGLDIEIATYRRLLEGEEQRLCEGIGAVNVCVSSSRGGVVCGDLCVSGSRPVTGSVCSAPCNGNVAVSTGLCAPCGQLNTTCGGGSCGVGSCGISSLGVGSCGSSCRKC | soluble |
| MASMTGGQQMGRDLQVTLYGTIKAGVEVSRVKDAGTYKAQGGKSKTATQIADFGSKIGFKGQEDLGNGMKAIWQLEQKASIAGTNSGWGNRQSFIGLKGGFGTVRAGNLNTVLKDSGDNVNAWESGSNTEDVLGLGTIGRVESREISVRYDSPVFAGFSGSVQYVPRDNANDVDKYKHTKSSRESYHAGLKYENAGFFGQYAGSFAKYADLNTDAERVAVNTANAHPVKDYQVHRVVAGYDANDLYVSVAGQYEAAKNNEVGSIKGKKHEQTQVAATAAYRFGNVTPRVSYAHGFKAKVNGVKDANYQYDQVIVGADYDFSKRTSALVSAGWLKQGKGAGKVEQTASMVGLRHKF | soluble |
| MSLDNMAKRQTKDIETIIQKIYYAKNRHLGTYTPLKNNSELEEINNYIYDLFESNEQLIHSIEHTERRLRDIQLKEIERQFQPHFLFNTMQTIQYLITLSPKLAQTVVQQLSQMLRYSLRTNSHTVELNEELNYIEQYVAIQNIRFDDMIKLHIESSEEARHQTIGKMMLQPLIENAIKHGRDTESLDITIRLTLARQNLHVLVCDNGIGMSSSRLQYVRQSLNNDVFDTKHLGLNHLHNKAMIQYGSHARLHIFSKRNQGTLICYKIPLSRGNVDVEGHHHHHH | not soluble |
| MPDSILEAARGGRTMQKYSEMSKEQLQAVKKELDQQYAEIKAQGLALDMSRGKPSVDQLNISMDMMDVLSSSTDLRCETGVDCRNYGVMDGIPEAKRLLGEISEVDPEHIIIYGNSSLNVMFDTVSRSMTHGVMGNTPWCKLDKVKFLCPVPGYDRHFKITEFFGIEMINVPMSPEGPDMDMVEKLVSEDPAIKGIWCVPKYSNPQGYTYSEETVKRFANLKPAAPDFRIYWDNAYSVHHLYDDEKDQDFLLEILDECAKAGNPDMVYKFTSTSKISFPGSGIAALAASKANLDDIRKYITVQTIGHDKLNQLRHVKFFKDLEGVHAHMRKHAAILRPKFEMVEATLEKELGGLGIGEWTTPKGGYFISFESLDGCAKKIVAMAKEAGVVMTGAGATYPYGKDPKDSNIRIAPSFPPIEELEKAAQVFVVCVKLASVEKLLAE | not soluble |
